Blank lines part the entries; values can stand above or below the substance they belong to.
Legend:
Experiment in all cases: SEC; Superose-6 10/300 GL (FPLC) in 25 mM Na-PIPES pH 7.2, 140 mM NaCl, 2 mM DTT, 0.026% C12E10; oligomeric state judged from the peak position against wild-type mPiezo1
[1] = target: mPiezo1-ΔL15-16 (657-677) (mouse) (UniProt E2JF22)
[2] = target: mPiezo1-ΔL19-20 (870–921) (mouse) (UniProt E2JF22)
mouse Piezo1 (mouse) = mouse Piezo1 (mouse) (UniProt E2JF22); details: remark: other sources report otherwise

stoichiometry N [1]: 3
Substance: mPiezo1-ΔL15-16 (657-677), E2JF22 1-656; E2JF22 678-2547

stoichiometry N [2]: 3
Substance: mPiezo1-ΔL19-20 (870–921), E2JF22 1-869; E2JF22 922-2547

stoichiometry N (mouse Piezo1 (mouse)): 3
Substance: mouse Piezo1, E2JF22 1-2547
